The values below come from patent US10934559B2, “Hypersensitive ABA receptors” (The Regents of the University of California, priority 2014, dated 2021).

Read-outs that look alike come from different tables or passages of the source.

In one test the test system is HAB1. The test is described as follows: PYR1 mutant-HAB1 yeast two-hybrid assay under different ABA concentrations (X-gal staining). As to conditions: lowest (+)-ABA concentration giving detectable X-gal staining; S. cerevisiae Y190 with pACT-HAB1; 30° C., 48 hours. Format: cell-based. An excerpt:
The affinity of a receptor for a target ligand is typically determined by non-covalent interactions between ligand-binding residues and the ligand. Mutations in such residues can have negative, positive or neutral effects on the strength of the receptor—ligand interaction. The affinity of a receptor-ligand interaction is intrinsically correlated with the concentration of ligand required to elicit biological effects, with high affinity ligands requiring lower concentrations relative to low affinity ligands. A mutant receptor with increased affinity for a ligand can in some cases elicit greater biological effect relative to a wild type receptor, when both are activated under identical conditions by the same concentration of activating ligand. Thus, mutations that make a receptor hypersensitive to a ligand can be useful for engineering organisms that elicit stronger responses to the ligand relative to wild type. […] Based on these considerations, we set out to systematically establish specific ABA receptor mutations that increase ABA responsiveness. This was done by testing a collection of PYR1 variants with all possible single amino acid substitution mutations in ligand binding residues. Thus we conducted site-saturated mutagenesis of ABA-contacting residues, which we define as those that are within 5A or ABA or ABA-contacting water residues in available X-ray coordinates. This collection of mutants was constructed previously, as described in PCT Application No. PCT/US2012/043121 and Mosquna et al., Proc Natl Acad Sci USA 108: 20838-20843 (2011). This collection of mutants was made by mutagenizing a previously described pBD GAL-PYR1 template (Park, S.-Y., et al. Science 324, 1068-1071 ([…])). In response to ABA, this particular plasmid encodes a fusion protein that binds to a co-expressed GAL4 activation domain-HAB1 fusion protein, encoded by the plasmid pACT-HAB1. This binding reconstitutes a functional GAL4 transcriptional activator and subsequent transcription of a β-galactosidase reporter gene, which in turn enables colorimetric based detection of agonist promoted receptor-PP2C interaction when lysed cells are exposed to the substrate X-gal. The mutant clones were individually transformed into S. cerevisiae strain Y190 containing pACT-HAB1. Yeast transformants were selected for the presence of plasmids on synthetic dextrose (SD) agar plates lacking Leu and Trp (SD-LT) and examined for PP2C interactions by using X-gal staining to monitor β-gal reporter gene expression levels. Individual clones were arrayed into 96 well plates and then spotted onto SD-LT lawn (i.e. one-well) plates containing 0, 0.5 or 5.0 μM (+)-ABA. Each assay plate contained 95 mutant clones and one wild type PYR1 positive control clone. The spotted cells were cultured at 30° C. for 48 hours after which they were lysed by chloroform and stained with an X-gal solution, as previously described (Park, S.-Y., et al. (2009) Science 324, 1068-1071). […] After this initial screening exercise, all positives clones were retested on plates containing […] and stained for galactosidase activity as described above. Mutant clones showing detectable staining on 0.5 μM (+)-ABA or lower were scored as hypersensitive mutants. FIG. 1 depicts results of PYR1 mutant-HAB1 interactions as assayed in a yeast two-hybrid assay under different ABA concentrations, with darker spots indicating increased interaction.

The conditions of test [1]: previously measured, Dupeux et al. 2010; read-out: affinity of wild type PYR1 (Kd) measured using ITC; cited from earlier work. (Isothermal titration calorimetry measures the heat released or taken up as one component is titrated into another.)
Test [2] is described as follows: isothermal titration calorimetry (ITC) of receptor-ABA binding. The conditions noted are these: 600 μM (+)-ABA injected into 60 μM receptor; PBS, 1 mM 2-mercaptoethanol, 0.012% DMSO; single binding site model. From the text:
The ligand sensitivity of PYR1 and HAB1 yeast two hybrid strains generally correlates with receptor affinity. To examine if this was the case for the hypersensitive mutations identified by our functional screens, we conducted isothermal titration calorimetry (ITC) to measure the heat produced by a mutant receptor-ABA binding reaction and infer the ligand binding dissociation constant (Kd). […] The PYR1-A160V mutant receptor was expressed in E. coli BL21(DE3) as a fusion to the small ubiquitin like protein SUMO, using the vector pSUMO (LifeSensors, USA), which improves the solubility of proteins in E. coli and contains an NH2-terminal hexa-histidine tag that facilitates purification using immobilized metal affinity chromatography (IMAC). PYR1 A160V was cloned into pSUMO by using PCR product generated from a pBD-PYR1(A160V) yeast two hybrid construct as template, and sequence validated. A short flexible linker and tobacco etch virus (TEV) protease cleavage site (sequence NH2-[…]-COOH; SEQ ID NO:411) was incorporated in between the SUMO tag and the receptor to enable cleavage of the recombinant protein by TEV protease, which yields PYR1(A160V) plus an NH2-terminal QS appendage. […]

For orientation: Kd means the equilibrium constant for the complex coming apart. Take “WT: Arabidopsis wildtype PYR1 ABA receptor, SEQ ID NO:1 [reference compound]”: in the test on HAB1, the “Minimal conc. For ABA response” value stood at 1 µM. For the same molecule, in test [1], the Kd is 97 ± 36 µM.

B1: A160V: PYR1 mutant A160V, SEQ ID NO:141; for ITC the cleaved recombinant protein with NH2-terminal QS appendage (protein)
chain: MPSELTPEERSELKNSIAEFHTYQLDPGSCSSLHAQRIHAPPELVWSIVRRFDKPQTYKHFIKSCSVEQNFEMRVGCTRDVIVISGLPANTSTERLDILDDERRVTGFSIIGGEHRLTNYKSVTTVHRFEKENRIWTVVLESYVVDMPEGNSEDDTRMFVDTVVKLNLQKLATVAEAMARNSGDGSGSQVT
modifications: N-terminal QS appendage for ITC; synthetic Arabidopsis PYR1 mutant A160V
For B1, in the test with HAB1, the “Minimal conc. For ABA response” value was determined as 0.25 µM. In test [2], this molecule showed a Kd of 1.5 µM.

B2: V81Y: PYR1 mutant V81Y, SEQ ID NO:127 (protein)
chain: MPSELTPEERSELKNSIAEFHTYQLDPGSCSSLHAQRIHAPPELVWSIVRRFDKPQTYKHFIKSCSVEQNFEMRVGCTRDYIVISGLPANTSTERLDILDDERRVTGFSIIGGEHRLTNYKSVTTVHRFEKENRIWTVVLESYVVDMPEGNSEDDTRMFADTVVKLNLQKLATVAEAMARNSGDGSGSQVT
modifications: synthetic Arabidopsis PYR1 mutant V81Y
Take B2: the “Minimal conc. For ABA response” value in the test with HAB1 amounted to 0.25 µM.

B3: V81I: PYR1 mutant V81I, SEQ ID NO:126 (protein)
chain: MPSELTPEERSELKNSIAEFHTYQLDPGSCSSLHAQRIHAPPELVWSIVRRFDKPQTYKHFIKSCSVEQNFEMRVGCTRDIIVISGLPANTSTERLDILDDERRVTGFSIIGGEHRLTNYKSVTTVHRFEKENRIWTVVLESYVVDMPEGNSEDDTRMFADTVVKLNLQKLATVAEAMARNSGDGSGSQVT
modifications: synthetic Arabidopsis PYR1 mutant V81I
Take B3: in the test on HAB1, the “Minimal conc. For ABA response” value stood at 0.25 µM.

B4: I110C: PYR1 mutant I110C, SEQ ID NO:128 (protein)
chain: MPSELTPEERSELKNSIAEFHTYQLDPGSCSSLHAQRIHAPPELVWSIVRRFDKPQTYKHFIKSCSVEQNFEMRVGCTRDVIVISGLPANTSTERLDILDDERRVTGFSCIGGEHRLTNYKSVTTVHRFEKENRIWTVVLESYVVDMPEGNSEDDTRMFADTVVKLNLQKLATVAEAMARNSGDGSGSQVT
modifications: synthetic Arabidopsis PYR1 mutant I110C
Consider B4, for which, in the test with HAB1, the “Minimal conc. For ABA response” value was 0.25 µM.
